What all share (settings): both partners purified
In test [1] the target is T1, SARS-CoV-2 spike receptor-binding domain (RBD), monomeric (SARS-CoV-2, UniProt P0DTC2).
T1 construct: Called monomeric RBD in the BLI methods; Amino acids 1-15 are probably removed on secretion (surmise); also called monomeric RBD
As to the kind of experiment: BLI; Octet; biotinylated scFv-Fc on streptavidin sensors; increasing concentrations of monomeric RBD, 300 s association, 600 s dissociation; 30 °C; 1:1 binding model.

For test [2], the target named is T2, SARS-CoV-2 spike glycoprotein, soluble (amino acids 1-1207) (SARS-CoV-2, Wuhan-Hu-1 (QHD43416), UniProt P0DTC2, proline substitution at position 986 | proline substitution at position 987 | …).
T2 construct: also called spike protein
In words: ELISA; direct ELISA; plates coated with 2 μg/ml recombinant spike, S1, RBD or NTD; scFv-Fc detected with AP-conjugated anti-human IgG; specificity panel (Fig. 1c). (In general: ELISA stands for enzyme-linked immunosorbent assay.)

The target of test [3] is T1, SARS-CoV-2 spike receptor-binding …. The test is described as above.

B1: MD67 (antibody, V domains shown)
VH: EVQLVESGGGLVQPGGSLRLSCAASGFTVSSNYMTWVRQAPGKGLEWVSVIYSGGSTFYADSVKGRFTISRHNSKNTLYLQMNSLRAEDTAVYYCARDLSVRGGMDVWGQGTTVTVSS
VL: not shown
notes: scFv-Fc format; also called MD67 scFv-Fc
One may read the Kd as the concentration at which binding is half-saturated. Take B1: the Kd in test [1] lay within 0.4 to 5.8 nM.

B2: MD62 (antibody, V domains shown)
VH: EVQLVQSGGGLIQPGGSLRLSCAASGVTVSSNYMTWVRQAPGKGLEWVSLIYSGGSTYYADSVKGRFTISRDNSKNTLYLQMNSLRAEDTAVYYCARDLQYYGMDVWGQGTMVTVSS
VL: AIRMTQSPSSVSASVGDRVTITCRASQDIGSWLGWYQQKPGKAPKLLIYAASSLAGGVPSRFSGSGSGTDFTLTISSLQPEDFATYYCQQANSFPLTFGGGTKLEIK
notes: scFv-Fc format; also called MD62 scFv-Fc
On to B2, for which, in test [2], the binding result is “binds”.

B3: MD17 (antibody, V domains shown)
VH: EVQLLESGGGLVQPGGSLRLSCSASGFTFSTYVMNWVRQAPGKGLEHVSGISSDGGITYYADSVKGRFTISRDNSKNTLYLQMSSLRVEDTAVYYCVKDQDSSSWYDAFDIWGQGTMVTVSS
VL: DIVMTQSPSSLSASVGDRVTITCRASQSISNYLNWYQQKLGKAPKLLTYAASRLQSGVPSRFSASGSGTEFTLTISSLQPEDFATYYCQQSYTTPLTFGGGTKLEIK
notes: scFv-Fc format; also called MD17 scFv-Fc
Take B3: in test [2], the binding result was “binds”.

B4: MD29 (antibody, V domains shown)
VH: QMQLVQSGGGLVQPGGSLRLSCSASGFTFSTYVMNWVRQAPGKGPEHVSGISSDGGITYYADSVKGRFTISRDNSKNTLYLQMSSLRVEDTAVYYCVKDQDSSSWYDAFDIWGQGTMVTVSS
VL: NIRLTQSPSSLSASVGDRVTITCRATQSISSYLNWYQQKPGKAPNLLIYAASSLQSGVPSRFSGSGSGTDFTLTISSLQPEDFATYYCHQTYTSPYTFGQGTKLEIK
notes: scFv-Fc format; also called MD29 scFv-Fc
On to B4, for which the binding result in test [2] is on record as “binds”. In test [1], this molecule gave a dissociation constant Kd of 0.4 to 5.8 nM.

B5: MD47 (antibody, V domains shown)
V domain 1: QMQLVQSGGGLVQPGGSLRLSCAASGFTFSSYAMSWVRQAPGKGLEWVSAISSGGSTYYADSVKGRFTISRDNSKNTLYLQMNSLRAEDTAVYYCAKDLVTAPSYEAFDIWGQGTMITVSS
V domain 2: NFMLTQPPSVSVAPGKTARITCGGNNIGSKSVHWYQQKPGQAPVLVIYYDSDRPSGIPERFSGSNSGNTATLTISRVEAGDEADYYCQVWDSSSHHHVVFGGGTKGTVL
notes: scFv-Fc format; also called MD47 scFv-Fc
B5: the binding result in test [3] is “binds”.

Source of the values: article PMC7452893 (Nature Communications, 2020).
